Source: PMC11906892

Assays:
ZER1 (ZYG11BL) = ZER1 (ZYG11BL) (Homo sapiens, UniProt Q7Z7L7 520-766); assay: ITC
ZYG11B = ZYG11B (Homo sapiens, UniProt Q9C0D3 445-728); assay: ITC
ZYG11B, sequence (Q9C0D3 445-728): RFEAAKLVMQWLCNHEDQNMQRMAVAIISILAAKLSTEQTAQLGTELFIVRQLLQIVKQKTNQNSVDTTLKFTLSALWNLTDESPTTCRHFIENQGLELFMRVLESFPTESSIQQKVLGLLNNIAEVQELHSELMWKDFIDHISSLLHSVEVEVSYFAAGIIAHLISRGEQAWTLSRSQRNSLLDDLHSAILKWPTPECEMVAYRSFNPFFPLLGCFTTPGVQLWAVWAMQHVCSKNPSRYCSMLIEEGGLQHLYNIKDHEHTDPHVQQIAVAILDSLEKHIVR

ZER1 (ZYG11BL), sequence (Q7Z7L7 520-766): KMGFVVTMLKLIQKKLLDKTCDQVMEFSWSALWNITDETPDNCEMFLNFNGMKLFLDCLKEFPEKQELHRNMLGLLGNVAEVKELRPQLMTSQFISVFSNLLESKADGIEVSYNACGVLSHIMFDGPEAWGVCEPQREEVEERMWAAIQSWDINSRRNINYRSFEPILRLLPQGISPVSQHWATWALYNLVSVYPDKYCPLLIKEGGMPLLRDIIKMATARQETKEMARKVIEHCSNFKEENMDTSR

For TCACCCGGTTGGGGCACACGTCTTGTTGATGGCTGC (ssDNA) [Apt#Z6], the binding result (ZER1 (ZYG11BL)) was “no binding” and the Kd (ZYG11B) was 4.69 ± 2.19 µM.
